± gives the standard error. For some of these results: This sample holds only a part of the variants without activity.
B1: glmS ribozyme (parent)
chain: AUAAAAGCGCCAGAACUACAGAAAUGUAGUUGACGAGGAGGAGGUUUAUCGAAUUUUCGGCGGAUGCCUCCAAA

Experiments:
Conditions in all cases: with glucosamine-6-phosphate
glucosamine-6-phosphate [1] = variants of: B1; test: kcat; higher = faster cleavage; RNA array
Method in brief: (§1)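 kobs was derived by fitting per-tile medians to one- or two-exponential decays after normalising signals to baseline and to non-cleaving reference variants. Those signals came from barcoded ribozyme variants transcribed in situ by E. coli RNA polymerase on sequenced MiSeq chips, followed through a hybridised Cy3 probe at 37 °C and imaged over ~14 h. Glucosamine-6-phosphate (40 μM to 10 mM) in HEPES/KCl/Mg(OAc)2 buffer was flowed in. Weighted Michaelis–Menten fits across concentrations then gave kcat and KM.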

glucosamine-6-phosphate [2] = variants of: B1; test: KM; higher = weaker cofactor use; RNA array
Method in brief: as §1

glucosamine-6-phosphate [3] = variants of: B1; test: self-cleavage kobs at 2500 uM GlcN6P; higher = faster cleavage; RNA array
Method in brief: as §1

glucosamine-6-phosphate [4] = variants of: B1; test: self-cleavage kobs at 10000 uM GlcN6P; higher = faster cleavage; RNA array
Method in brief: as §1

glucosamine-6-phosphate [5] = variants of: B1; test: self-cleavage kobs at 160 uM GlcN6P; higher = faster cleavage; RNA array
Method in brief: as §1

glucosamine-6-phosphate [6] = variants of: B1; test: self-cleavage kobs at 640 uM GlcN6P; higher = faster cleavage; RNA array
Method in brief: as §1

glucosamine-6-phosphate [7] = variants of: B1; test: self-cleavage kobs at 40 uM GlcN6P; higher = faster cleavage; RNA array
Method in brief: as §1

Variant | kcat (glucosamine-6-phosphate [1]) [s⁻¹] | KM (glucosamine-6-phosphate [2]) [µM] | self-cleavage kobs at 2500 uM GlcN6P (glucosamine-6-phosphate [3]) [s⁻¹] | self-cleavage kobs at 10000 uM GlcN6P (glucosamine-6-phosphate [4]) [s⁻¹] | self-cleavage kobs at 160 uM GlcN6P (glucosamine-6-phosphate [5]) [s⁻¹] | self-cleavage kobs at 640 uM GlcN6P (glucosamine-6-phosphate [6]) [s⁻¹] | self-cleavage kobs at 40 uM GlcN6P (glucosamine-6-phosphate [7]) [s⁻¹]
A15U G66C | 0.000125 ± 1.5e-05 | 7900 ± 1900 | 3.02e-05 ± 1.1e-05 | 6.96e-05 ± 1.2e-05 |  |  | 
A42G A52G | 0.00211 ± 0.00034 | 2550 ± 600 | 0.000991 ± 8.9e-05 | 0.00187 ± 0.00037 | 0.000117 ± 1.7e-05 | 0.000471 ± 4.8e-05 | 
A14U C71A | 0.00123 ± 0.0004 | 2040 ± 970 | 0.000647 ± 8.4e-05 | 0.00114 ± 0.00019 | 8.35e-05 ± 1.2e-05 | 0.00027 ± 4.3e-05 | 5.26e-05 ± 9.6e-06
A15G C61G | < 1e-05 |  | < 1e-05 |  | < 1e-05 | < 1e-05 | < 1e-05
A33U C71G | 1.4e-05 ± 2.4e-06 |  |  | 1.47e-05 ± 7.1e-06 |  |  | 
A33C U54C | 0.00039 ± 4.2e-05 | 1950 ± 360 | 0.000217 ± 3.9e-05 | 0.000325 ± 9.2e-05 |  | 0.0001 ± 1.7e-05 | 
U31C A52U U65A | < 1e-05 |  |  |  |  |  | 
A6U G29U | 5.83e-05 ± 3.7e-06 | 5560 ± 690 |  | 3.74e-05 ± 1.7e-05 |  |  | < 1e-05
A14C U69A | 0.000125 ± 1.5e-05 | 380 ± 170 | 0.000115 ± 1.8e-05 | 0.00011 ± 1.8e-05 | 2.61e-05 ± 1.2e-05 | 9.86e-05 ± 1.9e-05 | 
G13A G60U | < 1e-05 |  |  | < 1e-05 |  |  | 
A15U G63A | < 1e-05 |  |  | < 1e-05 |  |  | 
A6C U55C | 0.000127 ± 4e-05 |  | 3.24e-05 ± 1.2e-05 | 7.95e-05 ± 1.6e-05 |  |  | 
U54G A64G | 0.0237 ± 0.011 |  | 0.0145 ± 0.0059 | 0.0227 ± 0.0052 | 0.00149 ± 0.00039 | 0.0071 ± 0.0013 | 0.000837 ± 0.0001
G13U A14G | 0.00536 ± 0.0022 |  | 0.00171 ± 0.00049 | 0.00495 ± 0.00073 | 0.00019 ± 7.3e-05 | 0.00104 ± 0.00019 | 0.000124 ± 2e-05
A15G U31A | 0.0107 ± 0.0009 | 2220 ± 260 | 0.00493 ± 0.0014 | 0.00926 ± 0.0017 | 0.000722 ± 0.00015 | 0.00236 ± 0.00063 | 0.000199 ± 4.4e-05
A39G U46C | 0.00815 ± 0.0014 | 946 ± 240 | 0.0069 ± 0.0015 | 0.00601 ± 0.0018 | 0.00135 ± 0.00039 | 0.00369 ± 0.00073 | 0.000292 ± 6.4e-05

Source: the supplement of paper PMC7125110
